Common to all, as to test: PEPSCAN ELISA, peptide on card, alanine scan
On the technique in general: In an ELISA, binding on a coated surface is turned into a signal by an enzyme label.

In assay [1] the target is T1, peptide TYSSPEDAIHELFP
T1 construct: Alanine-scan peptide on a PEPSCAN card; also called replaced amino acid G
T1 peptide: TYSSPEDAIHELFP

For assay [2], the target named is T2, peptide TYSSPEDGAHELFP
T2 construct: Alanine-scan peptide on a PEPSCAN card; also called replaced amino acid I
T2 peptide: TYSSPEDGAHELFP

The target of assay [3] is T3, peptide TYSSPEDGIHELAP
T3 construct: Alanine-scan peptide on a PEPSCAN card; also called replaced amino acid F
T3 peptide: TYSSPEDGIHELAP

Assay [4] deals with T4, peptide TYSSPEDGIHEAFP
T4 construct: Alanine-scan peptide on a PEPSCAN card; also called replaced amino acid L
T4 peptide: TYSSPEDGIHEAFP

B1: antibody 17G8.72 (antibody, V domains shown)
VH: DVQLQESGPDLVKPSQSLSLTCTVTGYSIASGYSWHWIRQFPGNKLEWMGYIHFSGSANYNPSLKSRISITRDTSKNQFFLQLNSVTTEDTATYYCASEARGYFDYWGQGTTLTVSS
VL: DVLMTQTPLSLPVSLGDQASISCRSSQSIVRSNGNTYLTWYLQKPGQSPKLLIYKVSNRFSGVPDRFSGSGSGTDFTLKISRVEAEDLGVYFCFQGSHVPPTFGSGTKLEIKR
For the molecule B1, the “Antibody binding (arbitrary optical density units)” value (“Antibody binding” below) in assay [1] was 89 arbitrary optical density units; in assay [2], 66 arbitrary optical density units; in assay [3], 106 arbitrary optical density units.

B2: antibody 29E7.35 (antibody, V domains shown)
VH: AVQLQESGPDLVKPSHSLSLTCTVTGYSITSGYSWHWIRQFPGNKLEWMGYIHYSGSANYNPSLKSRFSITRDTSKNQFFLQLNSVTTEDTATYYCATEKTGFFDYWGQGTTLTVSS
VL: DVVMTQTPLSLPVSLGDQASISCRSSQSLVHSNGNTYLHWYLQKPGQSPKLLIYKVSNRFSGVPDRFSGSGSGTDFTLKISRVEAEDLGVYFCSQSAHVPPTFGGGTKLEIKR
In the case of B2, the “Antibody binding” value is 81 arbitrary optical density units in assay [1], 74 arbitrary optical density units in assay [2], 124 arbitrary optical density units in assay [3] and 194 arbitrary optical density units in assay [4].

B3: antibody 27A12.70 (antibody, V domains shown)
VH: DVQLQESGPDLVKPSQSLSLTCTVTGYSITSGYSWHWIRQFPGNKLEWMGYIHYSGIANYNPSLKSRISITRDTSKNHFFLQLNSVTTEDTATYYCATEKTGFFDYWGQGTTLTVSS
VL: DVVMTQTPLSLPVSLGDQASISCRSSQSLVHSNGNTYLHWYLQKPGQSPKLLIYKVSNRFSGVPDRFSGSGSGTDFTLKISRVEAEDLGVYFCSQSAHVPPTFGGGTKLEIKR
As for B3, the “Antibody binding” value is 122 arbitrary optical density units in assay [1], 91 arbitrary optical density units in assay [2] and 249 arbitrary optical density units in assay [3].

(Values after patent US20180264108A1 (ENCARE BIOTECH B V, published 2018).)
